Results reported in US9505841B2, “Use of an anti-Ang2 antibody” (Samsung Electronics Co., Ltd., priority 2013, dated 2016).

How the values were obtained:
[1] = test system: LLC (Lewis Lung Carcinoma); experiment: LLC tumor growth model; type: in vivo, mouse; settings: LLC in C57BL/6 mice; 10 mg/kg intraperitoneal three times a week; control Fc of IgG1
Experimental: To see the tumor growth inhibitory effects of Ang2 antibody, a […] Xenograft model using a LLC (Lewis Lung Carcinoma) was employed.
LLC cells (ATCC) were cultured using 10% FBS (Gibco)-supplemented DMEM (Gibco) media. 1×10^6 of LLC cells were re-suspended in 100 ul of PBS (Gibco) and then subcutaneously injected into 6˜8-week-old C57BL/6 mice (Jackson Laboratory) anesthetized with 1˜2% isoflurane.
When the size of tumors reached 50˜100 mm^3, anti-Ang2 antibody (10D6) was injected at the concentration of 10 mg/kg via an intraperitoneal injection three times a week and the size of the tumors was measured.
The size of tumor (V) was calculated using the following formula: Volume (V)=(width)2×length/2
For comparison, the same experiment was performed to a control group treated with Fc of IgG1 and a comparative group treated with antibody 4H10 (refer to Example 3).

[2] = test system: E-selectin; experiment: LPS-induced mRNA expression of E-selectin in HUVEC (qPCR); type: cell-based, human; settings: 100 ng/ml LPS 5 hours, 0.2 ug/ml Ang1 or 0.1 ug/ml Ang2 + 0.5 ug/ml antibody
Experimental: To see anti-inflammatory effects by antibody 10D6, HUVEC (ATCC) cells (4×10^5) were treated with Ang2 alone or Ang2 together with antibody 10D6, and a group in which Ang1 and Ang2 (R&D systems) and Regeneron Co. antibody (RG antibody) were co-treated was included as a control group. HUVEC cells were treated with 0.2 ug/ml of Ang1, 0.1 ug/ml of Ang2, or 0.1 ug/ml of Ang2 and 0.5 ug/ml of antibody, respectively and after 30-min. pre-incubation, they were treated with 100 ng/ml of LPS (Sigma) to induce inflammatory response and incubated for 5 hours.
The degree of the inflammatory response was identified by measuring the mRNA expression degree of an inflammatory adhesion substance (ICAM-1, E-selectin). The cells were washed using PBS, RNA was extracted using RNeasy Mini kit (Qiagen), and among them, 2 ug of RNA was synthesized into cDNA using Transcriptor First Strand cDNA synthesis kit (Roche). qPCR reaction was performed using RT2 SYBR™ Green Mastermix (Qiagen) and LightCycler™ 480 Real-Time PCR System (Roche). As an internal control for calibrating the amount of RNA in a sample, HPRT1 was used, and qPCR complied with the following procedures with regard to all the primers.
Step 1: 95° C., 10 min; Step 2 (45 cycles): Step 2-1: 95° C., 15 sec; Step 2-2: 60° C., 1 min; Step 3: 65° C., 15 sec; Step 4: 95° C., continuous (every 20° C.); Step 6: 40° C., 10 sec.

[3] = test system: HL-60 cells adhered to HUVEC cells; experiment: Binding between inflammatory cells HL-60 and HUVEC induced by TNF-a; type: cell-based, human; settings: 1 ng/ml TNF-a; 0.2 ug/ml Ang1 or 0.1 ug/ml Ang2 + 0.5 ug/ml 10D6
Experimental: Meanwhile, if the expression of inflammatory adhesion substances (ICAM-1, E-selectin, etc.) of vascular endothelial cells is increased, binding between the inflammatory cells and the vascular endothelial cells are accelerated and inflammatory response is thus induced. To confirm this, an experiment for measuring binding between inflammatory cells HL-60 (ATCC) and HUVEC was conducted.
HUVEC cells (4×10^5) were cultured in a 24-mutiwell plate and treated with 0.1 ug/ml of Ang2 alone or 0.1 ug/ml of Ang2 together with 0.5 ug/ml of antibody 10D6, and a group in which 0.2 ug/ml of Ang1, and 0.1 ug/ml of Ang2 (R&D systems) and 0.5 ug/ml of Regeneron Co. antibody (RG antibody) were co-treated was included as a control group. As above, the HUVEC cells were treated with Angiopoietin and antibody and after 30-min. pre-incubation, they were treated with 1 ng/ml of TNF-a (eBioscience) to induce inflammatory response and incubated for 2 hours and 30 min.
After the HUVEC cells were washed with complete media (Lonza), HL-60 cells dyed with Calcein-AM (BD bioscience) solution were added at the amount of 2.5×10^5 cells to each well and incubated for 1 hour. […] The obtained lysate was transported to a 96-well plate, and fluorescence strengths derived from the HL-60 cells were measured at 485/535 nm (Ex/Em) setting using an Envision 2104 multilabel Reader (Perkin Elmer).

[4] = test system: Tie2 receptor; experiment: Internalization of Tie2 receptor in HUVEC (confocal microscopy); type: cell-based, human
Experimental: HUVEC (ATCC) cells (1×10^6) were cultured in m-slide 8 wells (#80826, ibidi) for 24 hours and then subjected to serum starvation in serum-free EBM-2 media (Lonza) for 3 hours. 200 ng/ml of Ang1 (R&D systems) or 2ug/ml of Ang2 (R&D systems) and 10 ug/ml of antibody 10D6 were each diluted in EBM-2 media and then, the cells were treated with them and incubated according to time specified in the picture. The cells fixed with 4% formaldehyde (Sigma) was dyed first with an anti-Tie2 antibody (R&D systems) and then subjected to a secondary dye with an anti-goat Alexa 555 antibody (red, Life technology) and an anti-mouse Alexa 488 antibody (green, Life technology). The dyed cells were treated with Vectashield mounting medium with DAPI (Vector labs) and then observed using a confocal laser scanning microscopy (Carl Zeiss).

B1: 10D6: mouse anti-Ang2 monoclonal antibody from hybridoma KCLRF-BP-00295; heavy chain variable region SEQ ID NO: 7, light chain variable region SEQ ID NO: 9 (antibody, V domains shown)
VH: DVQLQESGPGLVKPSQSLSLTCTVTGYSITSDYAWNWIRQFPGNKLEWMGYINYSGNTDYNPSLKSRSSITRDTSKNQFFLQLNSVTTGDTATYYCARGNFEGAMDYWGQGTSVTVSS
VL: SIVMTQTPKFLLVSAGDRVTITCKASQSVSNDVAWYQQKPGQSPKLLIYYASNRYPGVPDRFTGSGYGTDFTFTISTVQAEDLAVYFCQQDYSSPWTFGGGTKLEIK
modifications: Synthetic (Heavy chain variable region of an anti-Ang2 antibody); Synthetic (Light chain variable region of anti-Ang2 antibody)
[1]
  inhibition of growth of the tumor compared to the control group: about 40%
[2]
  expression of E-selectin induced by LPS: remarkably suppressed
[3]
  binding between HUVEC cells and HL-60 cells induced by TNF-a: remarkably suppressed
[4]; 2 ug/ml Ang2 and 10 ug/ml antibody
  time from which internalization of the Tie2 receptor started: 30 min
[4]; anti-EEA1 antibody dye
  location of internalized Tie2 and antibody: located in an early endosome
